# Test results taken from EP4793287A1, “TUMOR MICROENVIRONMENT SPECIFICALLY ACTIVATED CD47 ANTIBODY” (Affinity (Shanghai) Biopharmaceutical Co., Ltd., priority 2023, dated 2025).
# B1: CD47 TMEAbody: CD47 TMEAbody conjugated with PEG of approximately 20K molecular weight (i.e., PEG20K) (conjugate)
# VH: QQQLEESGGGLVKPEGSLTLTCTASGFSFSSGYDMCWVRQAPGRGLEWIACIYTRSSGGTCYASWAKGRFTISKTSSTVDLRMTSLTAADTATYFCAGGRSSYRLNLWGQGALVTVSS
# VL: DVVMTQTPSPVEAAVGGTVTIKCQASQSISNELSWYQQKPGQPPKLLIYRASTLESGVSSRFKGSGSGTEFTLTISDLECADAATYYCQSTFYGDYGNAFGGGTEVVVK
# How the values were obtained:
# [1] = system: Human red blood cells (RBCs); assay: FACS binding to red blood cells
# Description: Human red blood cells (RBCs) (XFB-RBC, 10 ml) were centrifuged, and the supernatant was discarded. The cells were resuspended in FACS buffer (PBS + 2% FBS) and counted, and the cell density was adjusted to 2×10^6/ml. 100 µl/well of this suspension was added to a 96-well plate. After centrifugation and removal of the supernatant, the antibody to be tested (initial concentration of 100 nM, 5-fold gradient dilutions, 8 dilution points) was added at 100 µl/well, mixed with the cells, and incubated at 4 °C for 1 hour. Cells were washed by centrifugation with FACS buffer for three times, then added with 100 µl/well of Goat anti-Human IgG Fc Secondary Antibody, PE (eBioscience™, Invitrogen, Cat# 12-4998-82, 1:200 dilution) and incubated at 4 °C for 1 hour. After three washes with FACS buffer by centrifugation, the cells were resuspended in 200 µl/well of FACS buffer and analyzed using FACS (BECKMAN COULTER, CytoFLEX). Data were fitted and the results were analyzed using software (GraphPad Prism 8).
# CHOK1-CD47 cells = target: T1, CHOK1-CD47 cells (Homo sapiens, UniProt Q08722); assay: FACS binding of CD47 antibodies to CHOK1-CD47 cells; conditions: Example 4.3
# T1 construct: expressed in transfected cells; host or cells: CHO-K1 (CHOK1-CD47, puromycin selection)
# Description: The desired overexpressing cell line, CHOK1-CD47 (cultured in RPMI-1640 (ATCC Modification, Gibco, Cat# A10491-01) + 10% FBS (BI, Cat# 04-001-1A) + 1× P/S + 6 µg/ml Puromycin (Gibco, Cat# a1113803, 10 × 1 ml (10 mg/ml))), was expanded to the logarithmic phase. Cells were digested, collected, and pipetted to create a single-cell suspension, followed by centrifugation and removal of the supernatant. The cells were resuspended in FACS buffer (PBS + 2% FBS) and counted, and the cell density was adjusted to 2×10^6/ml. 100 µl/well of this suspension was added to a 96-well plate (Corning, Cat# 3799). […] After three washes with FACS buffer by centrifugation, the cells were resuspended in 200 µl/well of FACS buffer and analyzed using FACS (BECKMAN COULTER, CytoFLEX). Data were fitted and the results were analyzed using software (GraphPad Prism 8).
# The desired overexpressing cell line, CHOK1-CD47 (cultured in RPMI-1640 (ATCC Modification, Gibco, Cat# A10491-01) + 10% FBSThe (BI, Cat# 04-001-1A) + 1× P/S + 6 µg/ml Puromycin (Gibco, Cat# A1113803, 10 × 1 ml (10 mg/ml))), was expanded to the logarithmic phase. […] After three washes with FACS buffer by centrifugation, the cells were resuspended in 200 µl/well of FACS buffer and analyzed using FACS (BECKMAN COULTER, CytoFLEX). Data were fitted and the results were analyzed using software (GraphPad Prism 8).
# T1 sequence (Q08722 19-323): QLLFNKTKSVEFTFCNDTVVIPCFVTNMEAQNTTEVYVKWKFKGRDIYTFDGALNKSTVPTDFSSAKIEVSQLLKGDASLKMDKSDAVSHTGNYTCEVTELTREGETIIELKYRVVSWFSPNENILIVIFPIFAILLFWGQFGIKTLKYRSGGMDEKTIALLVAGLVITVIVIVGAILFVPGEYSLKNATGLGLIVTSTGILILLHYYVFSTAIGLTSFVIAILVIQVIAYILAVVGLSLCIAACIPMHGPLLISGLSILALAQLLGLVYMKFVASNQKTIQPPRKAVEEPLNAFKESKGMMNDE
molecule,measurement,setting,value
B1,binding to red blood cells,[1],essentially no binding to red blood cells
same,binding to cells lower compared to 70H1,CHOK1-CD47 cells,approximately 20 fold
